Assay results: IntAct's records for PubMed 21920025

How the values were obtained:
prio_human PRNP = prio_human PRNP (UniProt P04156)
prio_bovin PRNP = prio_bovin PRNP (UniProt P10279)

Row | Substance | effect of a mutation on the interaction (prio_human PRNP) | effect of a mutation on the interaction (prio_bovin PRNP)
1 | Major prion protein (Bos taurus (Bovine)) (from UniProt P10279) L149I | decreasing interaction | 
2 | Major prion protein (Homo sapiens) (from UniProt P04156) M129V |  | decreasing interaction
